Patent publication US20160264649A1

How the values were obtained:
Assay in all cases: cell-based or functional assay
[1] = target: HIV-1 JR-CSF Env (wild-type) (HIV-1) (UniProt P20871)
[2] = target: HIV-1 ADA Env (HIV-1)
[3] = target: HIV-1 Env of isolate PVO.4 (subtype B) (HIV-1)
[4] = target: HIV-1 Env of isolate MGRM-D-013 (subtype D) (HIV-1)
[5] = target: HIV-1 Env of isolate MG RM-C-027 (subtype C) (HIV-1)
[6] = target: HIV-1 Env of isolate VLGCB3 (subtype B) (HIV-1)
[7] = target: HIV-1 Env of isolate MGRM-D-019 (subtype D) (HIV-1)
[8] = target: HIV-1 Env of isolate MGRM-F1-006 (subtype F) (HIV-1)
[9] = target: HIV-1 Env of isolate 92WR026 (subtype A) (HIV-1)
[10] = target: HIV-1 Env of isolate MG RM-C-022 (subtype C) (HIV-1)
[11] = target: HIV-1 Env of pseudovirus isolate MGRM-G-011 (subtype G) (HIV-1)
[12] = target: HIV-1 Env of isolate 92UG024 (subtype D) (HIV-1)
[13] = target: HIV-1 Env of isolate MGRM-D-003 (subtype D) (HIV-1)
[14] = target: HIV-1 Env of isolate MGRM-D-011 (subtype D) (HIV-1)
[15] = target: HIV-1 Env of isolate SC422661.8 (subtype B) (HIV-1)
[16] = target: HIV-1 Env of isolate MGRM-D-008 (subtype D) (HIV-1)
[17] = target: HIV-1 Env of isolate 92WR009 (subtype A) (HIV-1)
[18] = target: HIV-1 Env of pseudovirus isolate MGRM-G-019 (subtype G) (HIV-1)
[19] = target: HIV-1 Env of isolate MG RM-C-023 (subtype C) (HIV-1)
[20] = target: HIV-1 Env of isolate MGRM-AE-007 (subtype AE) (HIV-1)
[21] = target: HIV-1 Env of pseudovirus isolate MGRM-G-027 (subtype G) (HIV-1)
[22] = target: HIV-1 Env of isolate MGRM-D-022 (subtype D) (HIV-1)
[23] = target: HIV-1 Env of isolate MGRM-Chronic-B-020 (subtype B) (HIV-1)
[24] = target: HIV-1 Env of isolate 98CN006 (subtype CRF08_BC) (HIV-1)
[25] = target: HIV-1 Env of isolate APV_13 (subtype B) (HIV-1)
[26] = target: HIV-1 Env of isolate 92UG005 (subtype D) (HIV-1)
[27] = target: HIV-1 Env of isolate MGRM-F1-017 (subtype F) (HIV-1)
[28] = target: HIV-1 Env of isolate NL43 (subtype B) (HIV-1)
[29] = target: envelope of aMLV pseudovirus (negative control)
[30] = target: HIV-1 Env of isolate MGRM-D-021 (subtype D) (HIV-1)
[31] = target: HIV-1 Env of isolate MGRM-Chronic-B-003 (subtype B) (HIV-1)
[32] = target: HIV-1 Env of isolate MGRM-D-001 (subtype D) (HIV-1)
[33] = target: HIV-1 Env of isolate MG RM-C-020 (subtype C) (HIV-1)
[34] = target: HIV-1 Env of isolate SF162 (subtype B) (HIV-1) (UniProt P19550)
[35] = target: HIV-1 Env of isolate MGRM-F1-023 (subtype F) (HIV-1)
[36] = target: HIV-1 Env of isolate 92UG037 (subtype A) (HIV-1)
[37] = target: HIV-1 Env of isolate 92 BR 020 (subtype B) (HIV-1)
[38] = target: HIV-1 Env of isolate QH0692.42 (subtype B) (HIV-1)
[39] = target: HIV-1 Env of isolate CMU02 (subtype AE) (HIV-1)
[40] = target: HIV-1 Env of isolate MGRM-F1-015 (subtype F) (HIV-1)
[41] = target: HIV-1 Env of isolate MGRM-Chronic-B-011 (subtype B) (HIV-1)
[42] = target: HIV-1 Env of pseudovirus isolate MGRM-G-013 (subtype G) (HIV-1)
[43] = target: HIV-1 Env of isolate MGRM-D-029 (subtype D) (HIV-1)
[44] = target: HIV-1 Env of isolate 93UG077 (subtype A) (HIV-1)
[45] = target: HIV-1 Env of isolate MGRM-Chronic-B-001 (subtype B) (HIV-1)
[46] = target: HIV-1 Env of isolate 92UG001 (subtype D) (HIV-1)
[47] = target: HIV-1 Env of pseudovirus isolate MGRM-G-004 (subtype G) (HIV-1)

1443_C16 (PG16) (TCN-116) (antibody), sequence (VH): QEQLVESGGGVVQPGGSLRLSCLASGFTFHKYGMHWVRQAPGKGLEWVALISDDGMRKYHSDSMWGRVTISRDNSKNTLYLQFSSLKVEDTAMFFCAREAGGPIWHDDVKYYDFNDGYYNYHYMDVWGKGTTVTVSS
1443_C16 (PG16) (TCN-116) (antibody), sequence (VL): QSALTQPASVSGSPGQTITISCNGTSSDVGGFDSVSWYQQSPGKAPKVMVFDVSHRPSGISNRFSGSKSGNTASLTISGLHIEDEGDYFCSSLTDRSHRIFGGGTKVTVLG

1443_C16 (PG16) (TCN-116) (antibody)
IC50, TZM-bl pseudovirus neutralization [1]: 0.001 µg/mL
IC50, TZM-bl pseudovirus neutralization [2]: 0.004 µg/mL

1496_C09 (PG9) (TCN-109) (antibody)
IC50 [3]: 24.8 µg/mL
IC50 (pseudovirus neutralization) [4]: 0.021 µg/mL
IC50 (µg/mL), pseudovirus neutralization [5]: 5.36 µg/mL
IC50 (µg/mL), pseudovirus neutralization [6]: 0.022 µg/mL
IC50 (pseudovirus neutralization) [7]: 0.038 µg/mL
IC50 (pseudovirus neutralization) [8]: 7.25 µg/mL
IC50 (pseudovirus neutralization) [9]: 0.164 µg/mL
IC50 (µg/mL), pseudovirus neutralization [10]: 0.346 µg/mL
IC50, TZM-bl pseudovirus neutralization [1]: 0.006 µg/mL
IC50 [11]: 0.335 µg/mL
IC50 (neutralization) [12]: 1.86 µg/mL
IC50 (pseudovirus neutralization) [13]: 0.033 µg/mL
IC50 (pseudovirus neutralization) [14]: 0.071 µg/mL
IC50 [15]: 1.48 µg/mL
IC50 (pseudovirus neutralization) [16]: 11.5 µg/mL
IC50 (pseudovirus neutralization) [17]: 0.05 µg/mL
IC50 [18]: 14.6 µg/mL
IC50, TZM-bl pseudovirus neutralization [2]: 0.2 µg/mL
IC50 (µg/mL), pseudovirus neutralization [19]: 0.614 µg/mL
IC50 (pseudovirus neutralization) [20]: 0.18 µg/mL
IC50 [21]: 0.007 µg/mL

PGV04 (antibody)
IC50 (pseudovirus neutralization) [22]: > 50 µg/mL
IC50 [3]: 0.454 µg/mL
IC50 (pseudovirus neutralization) [4]: 0.088 µg/mL
IC50 (µg/mL), pseudovirus neutralization [5]: 2.76 µg/mL
IC50 [23]: 1.26 µg/mL
IC50 (µg/mL), pseudovirus neutralization [6]: 0.045 µg/mL
IC50 (neutralization) [24]: 1.32 µg/mL
IC50 [25]: 1.23 µg/mL
IC50 (pseudovirus neutralization) [7]: 0.35 µg/mL
IC50 (neutralization) [26]: 0.44 µg/mL
IC50 (pseudovirus neutralization) [8]: > 50 µg/mL
IC50 (pseudovirus neutralization) [9]: 0.14 µg/mL
IC50 (µg/mL), pseudovirus neutralization [10]: 18.3 µg/mL
IC50 [11]: 0.78 µg/mL
IC50 (pseudovirus neutralization) [27]: 2.38 µg/mL
IC50 (µg/mL), pseudovirus neutralization [28]: 0.028 µg/mL
IC50 (neutralization) [12]: 0.201 µg/mL
IC50 (pseudovirus neutralization) [13]: > 50 µg/mL
IC50 [29]: > 50 µg/mL
IC50 (pseudovirus neutralization) [30]: > 50 µg/mL
IC50 [31]: 0.258 µg/mL
IC50 (pseudovirus neutralization) [32]: > 50 µg/mL
IC50 (pseudovirus neutralization) [14]: 0.025 µg/mL
IC50 (µg/mL), pseudovirus neutralization [33]: 0.112 µg/mL
IC50 (µg/mL), pseudovirus neutralization [34]: 0.028 µg/mL
IC50 (pseudovirus neutralization) [35]: 0.171 µg/mL
IC50 (pseudovirus neutralization) [36]: 0.145 µg/mL
IC50 [15]: 0.11 µg/mL
IC50 (pseudovirus neutralization) [16]: 3.56 µg/mL
IC50 [37]: 0.25 µg/mL
IC50 [38]: 1.9 µg/mL
IC50 (pseudovirus neutralization) [17]: 0.108 µg/mL
IC50 [18]: 0.027 µg/mL
IC50 (pseudovirus neutralization) [39]: 1.24 µg/mL
IC50 (pseudovirus neutralization) [40]: 0.179 µg/mL
IC50 [41]: 0.497 µg/mL
IC50 [42]: 0.168 µg/mL
IC50 (µg/mL), pseudovirus neutralization [19]: 0.128 µg/mL
IC50 (pseudovirus neutralization) [43]: 1.56 µg/mL
IC50 (pseudovirus neutralization) [44]: 0.083 µg/mL
IC50 [45]: 0.048 µg/mL
IC50 (neutralization) [46]: 0.553 µg/mL
IC50 [47]: > 50 µg/mL
IC50 (pseudovirus neutralization) [20]: 5.75 µg/mL
IC50 [21]: 0.125 µg/mL

VRC01 (antibody)
IC50 (pseudovirus neutralization) [22]: > 50 µg/mL
IC50 [3]: 0.218 µg/mL
IC50 (pseudovirus neutralization) [4]: 0.087 µg/mL
IC50 [5]: 0.125 µg/mL
IC50 [23]: 0.424 µg/mL
IC50 [6]: 0.108 µg/mL
IC50 (neutralization) [24]: 0.644 µg/mL
IC50 [25]: 0.657 µg/mL
IC50 (pseudovirus neutralization) [7]: 0.119 µg/mL
IC50 (neutralization) [26]: 0.576 µg/mL
IC50 (pseudovirus neutralization) [8]: 2.86 µg/mL
IC50 [10]: 13 µg/mL
IC50 [11]: 0.065 µg/mL
IC50 (pseudovirus neutralization) [27]: 1.08 µg/mL
IC50 [28]: 0.1 µg/mL
IC50 (neutralization) [12]: 0.576 µg/mL
IC50 (pseudovirus neutralization) [13]: 2.06 µg/mL
IC50 [29]: > 50 µg/mL
IC50 (pseudovirus neutralization) [30]: 33.4 µg/mL
IC50 [31]: 0.1 µg/mL
IC50 (pseudovirus neutralization) [32]: > 50 µg/mL
IC50 (pseudovirus neutralization) [14]: 0.075 µg/mL
IC50 [33]: 0.396 µg/mL
IC50 [34]: 0.421 µg/mL
IC50 (pseudovirus neutralization) [35]: 0.392 µg/mL
IC50 (pseudovirus neutralization) [36]: 0.245 µg/mL
IC50 [15]: 0.179 µg/mL
IC50 (pseudovirus neutralization) [16]: 0.854 µg/mL
IC50 [37]: 0.29 µg/mL
IC50 [38]: 1.19 µg/mL
IC50 (pseudovirus neutralization) [17]: 0.187 µg/mL
IC50 [18]: 0.06 µg/mL
IC50 (pseudovirus neutralization) [39]: 0.515 µg/mL
IC50 (pseudovirus neutralization) [40]: 0.387 µg/mL
IC50 [41]: 0.587 µg/mL
IC50 [42]: 0.553 µg/mL
IC50 [19]: 0.077 µg/mL
IC50 (pseudovirus neutralization) [43]: 3.22 µg/mL
IC50 (pseudovirus neutralization) [44]: 0.097 µg/mL
IC50 [45]: 0.066 µg/mL
IC50 (neutralization) [46]: 1.16 µg/mL
IC50 [47]: > 50 µg/mL
IC50 (pseudovirus neutralization) [20]: 0.835 µg/mL
IC50 [21]: 0.36 µg/mL
